Assay results as given in the supplement of paper PMC10567573.

B1: PDS5B (parent)
chain: ITYPPGVKEISDKISKEEMVRRLK

Variants of: B1
Assay: protein stability index of a GFP-peptide fusion (GPS, HEK-293T) (PSI 1-6); higher = more stable
Details: c terminus: a fixed tail appended
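Note: lentivirally expressed fusions sorted by FACS into six bins by GFP to DsRed ratio, PSI derived from sequencing read proportions per bin multiplied by bin number.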

Protein stability index: each site, then its substitutions
V7: G 4.01 | I 4.43 | R 4.5 | E 3.09 | W 3.82 | N 4.24 | L 3.67 | C 4
M19: N 4.76 | T 4.99 | E 4.79 | C 4.1 | I 4.24 | H 4.74 | Y 3.96 | P 4.64
K8: I 3.12 | Q 4.29 | L 3.7 | Y 3.21 | T 4.57 | V 4.67 | E 3.78 | C 3.31
L23: E 4.84 | W 3.1 | K 4.85 | V 4.29 | T 4.79 | P 4.85 | G 4.84 | R 4.59 | M 3.78 | A 4.61 | Q 4.75 | I 4.51
E9: H 3.43 | I 3.15 | L 2.09 | D 3.98 | S 3.81 | F 2.97 | P 2.75 | R 2.11
D12: A 2.75 | G 3.15 | E 3.57 | Y 2.46 | R 3.19 | Q 3.29
I14: N 2.93 | Y 2.68 | W 3.03 | L 4.08 | R 4.38 | H 5.35 | E 4.61 | Q 5.02
K24: H 3.85 | A 3.58 | D 4.78 | S 3.23 | I 3.04 | M 3.11 | G 3.77 | F 2.48
R22: H 3.88 | G 4.72 | T 4.41 | M 2.89
E17: F 2.41 | C 2.91 | L 2.59 | K 3.82 | T 4.68 | H 4.17 | A 3.14
G6: K 4.57 | Q 3.73 | E 5.04 | A 4.26 | W 3.3
R21: E 3.69 | I 3.41 | M 3.97 | S 4.45 | P 4.52 | A 2.21 | H 3.77
K16: H 3.75 | S 4.47 | V 3.36 | D 3.56
I1: W 4.64 | S 4.78 | H 5.04 | G 3.81 | L 3.95
S15: Y 3.46 | E 4.81 | W 2.13 | N 3.89 | R 3.7 | M 4.01 | H 4.52
E18: L 1.84 | F 2.18 | P 3.69 | Y 2.86 | T 4.12 | C 3.86
I10: H 3.62 | D 4.88 | P 4.27 | N 4.68 | F 4.31 | V 4.62 | E 4.38 | Y 4.44 | Q 4.36
P5: Y 2.12 | H 3.67 | V 3.16 | E 4.11 | W 3.15 | A 4.44 | N 4.01
T2: L 4.14 | Y 3.37 | V 2.4 | P 3.47 | N 3.79
P4: H 3.91 | R 3.43 | I 1.94 | K 3.61 | Q 3.33 | N 3.43
K13: G 3.75 | H 3.7 | S 4.35 | N 3.72 | T 3.96 | V 3.51 | D 4.69
S11: R 3.4 | I 2.83 | C 3.94 | V 2.8 | T 4.08 | A 3.85 | P 4.29 | G 3.92
Y3: R 4.96 | V 4.44 | H 4.43 | I 3.97 | Q 4.97 | W 2.8 | C 3.52 | L 3.81
V20: F 3.6 | R 4.61 | N 4.4 | K 4.17 | G 4.59 | S 4.83
